{"source": "paper PMC11919764", "about": "“Cryo-electron tomography reveals how COPII assembles on cargo-containing membranes” (Nature Structural & Molecular Biology, 2024)", "target": "T1, Sec24 (S. cerevisiae, UniProt P40482 1-926)", "T1 construct": "Sec24, S. cerevisiae; The Sec24 chain of m2; in the assays it stood in the Sec23–Sec24 complex", "T1 sequence": "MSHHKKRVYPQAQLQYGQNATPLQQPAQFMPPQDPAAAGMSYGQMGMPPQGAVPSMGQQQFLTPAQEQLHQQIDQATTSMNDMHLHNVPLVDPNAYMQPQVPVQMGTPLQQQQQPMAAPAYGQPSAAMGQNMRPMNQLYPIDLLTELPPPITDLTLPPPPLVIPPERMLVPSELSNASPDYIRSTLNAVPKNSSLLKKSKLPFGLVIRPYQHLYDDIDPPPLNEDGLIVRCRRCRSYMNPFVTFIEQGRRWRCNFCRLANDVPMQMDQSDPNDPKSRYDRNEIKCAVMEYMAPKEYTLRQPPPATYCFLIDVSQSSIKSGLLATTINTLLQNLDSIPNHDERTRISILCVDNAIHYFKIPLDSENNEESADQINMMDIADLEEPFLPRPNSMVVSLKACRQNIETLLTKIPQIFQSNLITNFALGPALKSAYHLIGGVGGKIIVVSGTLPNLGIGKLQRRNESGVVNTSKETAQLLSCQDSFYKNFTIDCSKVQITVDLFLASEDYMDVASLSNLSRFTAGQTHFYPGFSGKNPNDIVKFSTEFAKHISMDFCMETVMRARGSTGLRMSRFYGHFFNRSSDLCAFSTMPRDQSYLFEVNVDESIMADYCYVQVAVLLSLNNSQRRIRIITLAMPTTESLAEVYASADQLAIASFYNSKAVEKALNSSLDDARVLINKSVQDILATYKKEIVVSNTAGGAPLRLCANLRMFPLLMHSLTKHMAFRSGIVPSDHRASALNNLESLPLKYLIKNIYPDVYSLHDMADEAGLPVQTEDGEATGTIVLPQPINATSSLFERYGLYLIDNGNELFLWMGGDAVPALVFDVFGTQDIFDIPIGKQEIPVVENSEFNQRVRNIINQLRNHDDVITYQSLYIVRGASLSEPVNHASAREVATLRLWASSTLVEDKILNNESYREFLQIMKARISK", "assay": "cryo-EM structure; cryo-ET with subtomogram averaging of COPII budding reactions on GUVs enriched with Sed5 held by its 6xHis-tag on Ni-NTA lipids: 1 μM Sar1, 180 nM Sec23–Sec24, 173 μM Sec13–Sec31, 360 nM Sed5, 1 mM GMP-PNP, 2.5 mM EDTA (pH 8.0), 10% GUVs (v/v); coated tubes; atomic models rigid-body fitted", "details": "both partners purified", "data": [{"binder": "Sed5 cytosolic domain (residues 1–319) with C-terminal 6xHis-tag (domain or fragment, S. cerevisiae, Sed5, S. cerevisiae S288c, UniProt Q01590, residues 1–319 (transmembrane helix truncated); flexible triple-glycine linker between residue 319 of Sed5 and the 6xHis-tag; Held on GUVs through Ni-NTA tagged lipids by its C-terminal 6xHis-tag, which stands in place of the transmembrane domain; also called 6xHis-tagged Sed5; source: E. coli BL21, purified (Ni-NTA, HiTrap Q, Superdex 200); not shown: …) MNIKDRTSEFQQSVLSYKKRNKNFREQQRERLQEKESENFANNTTGNGKSVSEFQKKASGIAHEISSTAQLLSKLAVLAKRKPMFNDNPVEIAELSFLIKRKIYAIEQSLVQLSQLKKTDVNGNTSNQSSKQPSAVQHSKNVVNLLNTQMKNISGSFKDVLEERQRLEMANKDRWQKLTTDTGHAPADDQTQSNHAADLTTYNNSNPFMTSLLDESSEKNNNSSNQGELSFPQNDSQLMLMEEGQLSNNVYLQERNRAVETIESTIQEVGNLFQQLASMVQEQGEVIQRIDANVDDIDLNISGAQRELLKYFDRIKSNRGGG", "values": [{"measurement": "binding result", "result": "binds"}]}]}
